One assay deals with Human Tie-1 (human) (UniProt P35590). Nature of the assay: cell-based or functional assay.
For the next assay, the target named is Human Tie-2 (human) (UniProt Q02763). Nature of the assay: cell-based or functional assay.
Chain of UniProt Q02763 (Q02763 23-1124 Q346P/T695I): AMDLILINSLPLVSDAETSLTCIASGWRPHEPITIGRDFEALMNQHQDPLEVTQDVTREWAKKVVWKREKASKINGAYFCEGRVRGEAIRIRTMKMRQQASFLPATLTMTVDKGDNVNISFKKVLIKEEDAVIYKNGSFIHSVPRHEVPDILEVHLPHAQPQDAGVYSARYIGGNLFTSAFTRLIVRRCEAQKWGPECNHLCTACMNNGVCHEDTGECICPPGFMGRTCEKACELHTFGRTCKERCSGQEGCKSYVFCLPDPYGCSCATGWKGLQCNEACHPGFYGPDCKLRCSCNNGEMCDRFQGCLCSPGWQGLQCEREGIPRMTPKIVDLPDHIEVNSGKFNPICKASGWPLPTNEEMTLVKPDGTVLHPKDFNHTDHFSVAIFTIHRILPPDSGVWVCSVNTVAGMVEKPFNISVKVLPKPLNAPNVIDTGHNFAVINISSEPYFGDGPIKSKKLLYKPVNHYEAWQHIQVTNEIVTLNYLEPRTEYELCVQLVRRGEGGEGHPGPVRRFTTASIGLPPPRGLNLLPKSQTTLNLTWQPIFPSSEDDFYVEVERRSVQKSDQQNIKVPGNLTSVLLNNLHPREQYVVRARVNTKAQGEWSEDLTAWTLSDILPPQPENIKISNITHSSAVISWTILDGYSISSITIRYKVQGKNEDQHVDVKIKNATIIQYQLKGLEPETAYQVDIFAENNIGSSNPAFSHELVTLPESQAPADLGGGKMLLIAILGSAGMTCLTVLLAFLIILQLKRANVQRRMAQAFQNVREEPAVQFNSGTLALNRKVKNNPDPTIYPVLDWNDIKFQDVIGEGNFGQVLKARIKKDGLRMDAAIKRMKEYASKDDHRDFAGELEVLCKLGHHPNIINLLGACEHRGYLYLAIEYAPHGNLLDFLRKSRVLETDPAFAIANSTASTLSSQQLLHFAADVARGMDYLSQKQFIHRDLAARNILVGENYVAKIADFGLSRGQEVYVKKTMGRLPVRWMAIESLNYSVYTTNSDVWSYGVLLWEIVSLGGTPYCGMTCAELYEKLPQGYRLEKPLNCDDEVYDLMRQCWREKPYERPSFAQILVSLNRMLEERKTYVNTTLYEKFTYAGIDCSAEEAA

Chain of UniProt P35590 (P35590 25-1138): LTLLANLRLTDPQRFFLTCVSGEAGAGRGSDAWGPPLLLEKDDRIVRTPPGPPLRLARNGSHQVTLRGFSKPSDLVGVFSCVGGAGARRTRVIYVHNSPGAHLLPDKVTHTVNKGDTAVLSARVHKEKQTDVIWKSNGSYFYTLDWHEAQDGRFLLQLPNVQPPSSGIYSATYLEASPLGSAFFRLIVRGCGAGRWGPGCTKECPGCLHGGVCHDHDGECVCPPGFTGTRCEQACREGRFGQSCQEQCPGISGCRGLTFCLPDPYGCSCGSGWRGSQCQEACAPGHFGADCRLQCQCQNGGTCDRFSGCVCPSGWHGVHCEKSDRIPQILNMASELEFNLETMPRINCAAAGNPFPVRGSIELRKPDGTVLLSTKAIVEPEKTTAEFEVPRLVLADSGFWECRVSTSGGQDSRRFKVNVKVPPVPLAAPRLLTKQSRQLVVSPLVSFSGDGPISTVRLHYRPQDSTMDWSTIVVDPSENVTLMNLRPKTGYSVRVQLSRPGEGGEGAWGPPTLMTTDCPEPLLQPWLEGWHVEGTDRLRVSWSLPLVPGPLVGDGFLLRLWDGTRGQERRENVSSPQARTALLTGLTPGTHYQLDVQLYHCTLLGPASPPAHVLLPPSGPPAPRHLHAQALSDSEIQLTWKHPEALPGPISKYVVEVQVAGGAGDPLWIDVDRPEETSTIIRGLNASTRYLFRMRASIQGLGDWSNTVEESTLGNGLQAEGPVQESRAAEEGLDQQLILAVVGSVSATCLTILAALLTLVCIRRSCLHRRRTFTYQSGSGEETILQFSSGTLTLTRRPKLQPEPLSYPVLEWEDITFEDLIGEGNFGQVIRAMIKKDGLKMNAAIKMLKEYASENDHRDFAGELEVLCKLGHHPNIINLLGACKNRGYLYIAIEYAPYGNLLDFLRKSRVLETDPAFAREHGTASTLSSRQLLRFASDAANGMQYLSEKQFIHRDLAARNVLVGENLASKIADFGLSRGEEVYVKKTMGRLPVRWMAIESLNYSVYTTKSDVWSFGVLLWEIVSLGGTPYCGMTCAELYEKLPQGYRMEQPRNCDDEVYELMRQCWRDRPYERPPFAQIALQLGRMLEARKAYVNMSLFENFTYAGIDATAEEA

Turning to “COMP-Ang-1 chimeric protein (from UniProt Q15389 256-498) (ligand)”, the COMP-Ang-1 concentration giving maximal receptor phosphorylation in the assay with Human Tie-1 (human) and with Human Tie-2 (human) was 600 ng/mL in each case. In addition, the COMP-Ang-1 concentration giving significant receptor phosphorylation with Human Tie-1 (human) and with Human Tie-2 (human) was 100 ng/mL throughout.
